B1: VHH Z70 (VHH)
VHH: EVQLQASGGVFVQSGGSLRLSCAASGATSTFDGMGWFRQAPGKEREFVSAISYEQGSYTYYADSVKGRFTISRDNSKNMVYLQMNSLRAEDTATYYCAPAYEGDLYAFDSYGGQGTQVTVSS
notes: VHH Z70; also in PDB 7QCQ; also called parent VHH; source: E. coli BL21 (DE3), periplasm, purified (IMAC, SEC)
B2: VHH Z70 mutant 12 (S23C + G115E) (VHH)
VHH: EVQLQASGGVFVQSGGSLRLCCAASGATSTFDGMGWFRQAPGKEREFVSAISYEQGSYTYYADSVKGRFTISRDNSKNMVYLQMNSLRAEDTATYYCAPAYEGDLYAFDSYGEQGTQVTVSS
notes: as the chain of m1 (VHH Z70); also called Mut12; source: E. coli BL21 (DE3), periplasm, purified (IMAC, SEC)
B3: VHH Z70 mutant 14 (VHH)
VHH: EVQLQASGGVFVQSGGSLRLSCAASGATSIFDGMGWFRQAPGKEREFVSAISYGQGSYTYYADSVKGRFTISRDNSKNMVYLQMNSLRAEDTATYYCAPAYEGDLYAFDSYGEQGTQVTVSS
notes: as the chain of m1 (VHH Z70); The text says only that G115E is combined with additional substitutions in mutant 14; also called Mut14; source: E. coli BL21 (DE3), periplasm, purified (IMAC, SEC)
B4: VHH Z70 mutant 20 (R47K + G115E) (VHH)
VHH: EVQLQASGGVFVQSGGSLRLSCAASGATSTFDGMGWFRQAPGKEKEFVSAISYEQGSYTYYADSVKGRFTISRDNSKNMVYLQMNSLRAEDTATYYCAPAYEGDLYAFDSYGEQGTQVTVSS
notes: as the chain of m1 (VHH Z70); Generated by the authors, not found in the screen; also called Mut20; source: E. coli BL21 (DE3), periplasm, purified (IMAC, SEC)
B5: VHH Z70 mutant 5 (T96S) (VHH)
VHH: EVQLQASGGVFVQSGGSLRLSCAASGATSTFDGMGWFRQAPGKEREFVSAISYEQGSYTYYADSVKGRFTISRDNSKNMVYLQMNSLRAEDTASYYCAPAYEGDLYAFDSYGGQGTQVTVSS
notes: as the chain of m1 (VHH Z70); also called Mut5; source: E. coli BL21 (DE3), periplasm, purified (IMAC, SEC)
B6: VHH Z70 mutant 1 (G115E) (VHH)
VHH: EVQLQASGGVFVQSGGSLRLSCAASGATSTFDGMGWFRQAPGKEREFVSAISYEQGSYTYYADSVKGRFTISRDNSKNMVYLQMNSLRAEDTATYYCAPAYEGDLYAFDSYGEQGTQVTVSS
notes: as the chain of m1 (VHH Z70); also called Mut1; source: E. coli BL21 (DE3), periplasm, purified (IMAC, SEC)
B7: VHH Z70 mutant 9 (P101S + G115E) (VHH)
VHH: EVQLQASGGVFVQSGGSLRLSCAASGATSTFDGMGWFRQAPGKEREFVSAISYEQGSYTYYADSVKGRFTISRDNSKNMVYLQMNSLRAEDTATYYCASAYEGDLYAFDSYGEQGTQVTVSS
notes: as the chain of m1 (VHH Z70); also called Mut9; source: E. coli BL21 (DE3), periplasm, purified (IMAC, SEC)
B8: VHH Z70 mutant 15 (R90G + P101S + G114E) (VHH)
VHH: EVQLQASGGVFVQSGGSLRLSCAASGATSTFDGMGWFRQAPGKEREFVSAISYEQGSYTYYADSVKGRFTISRDNSKNMVYLQMNSLGAEDTATYYCASAYEGDLYAFDSYEGQGTQVTVSS
notes: as the chain of m1 (VHH Z70); also called Mut15; source: E. coli BL21 (DE3), periplasm, purified (IMAC, SEC)
B9: VHH Z70 mutant 3 (R47K) (VHH)
VHH: EVQLQASGGVFVQSGGSLRLSCAASGATSTFDGMGWFRQAPGKEKEFVSAISYEQGSYTYYADSVKGRFTISRDNSKNMVYLQMNSLRAEDTATYYCAPAYEGDLYAFDSYGGQGTQVTVSS
notes: as the chain of m1 (VHH Z70); also called Mut3; source: E. coli BL21 (DE3), periplasm, purified (IMAC, SEC)

The source of these data is paper PMC11007443, “A selection and optimization strategy for single-domain antibodies targeting the PHF6 linear peptide within the tau intrinsically disordered protein” (The Journal of Biological Chemistry, 2024).

For one assay, the target named is T1, biotinylated tau 2N4R (Homo sapiens, UniProt P10636-8, biotin (N-hydroxysuccimide-biotin conjugates, 5 M excess)).
T1 construct: tau protein, 2N4R isoform, NCBI NP_005901.2; Expressed from pET15b-tau; also called full-length tau; source: E. coli BL21 (DE3), purified (heating, cation exchange), then biotinylated
T1 sequence (P10636 other isoform, or with tags, fused parts or gaps): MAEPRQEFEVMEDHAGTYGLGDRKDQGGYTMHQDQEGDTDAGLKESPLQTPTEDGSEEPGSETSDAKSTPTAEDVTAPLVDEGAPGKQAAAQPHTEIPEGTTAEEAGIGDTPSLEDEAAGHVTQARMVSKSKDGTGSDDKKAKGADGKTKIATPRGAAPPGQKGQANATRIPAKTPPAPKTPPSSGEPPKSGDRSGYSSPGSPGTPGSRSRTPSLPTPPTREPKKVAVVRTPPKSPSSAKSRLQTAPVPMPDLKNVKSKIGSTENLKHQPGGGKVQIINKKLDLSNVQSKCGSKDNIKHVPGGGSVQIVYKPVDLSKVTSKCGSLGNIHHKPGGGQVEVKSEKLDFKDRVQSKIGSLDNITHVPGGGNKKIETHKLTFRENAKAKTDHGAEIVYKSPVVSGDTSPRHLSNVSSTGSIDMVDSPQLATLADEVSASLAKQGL
The assay is described as follows: SPR; biotinylated tau 2N4R captured on a streptavidin chip (500 RU); VHHs as analytes, 0.125-2 uM, single-cycle kinetics; HBS-EP+ buffer; 1:1 Langmuir model; Kd calculated as koff/kon. Conditions: both partners purified.
With B1, the Kd was 147.8 ± 0.9 nM, the off-rate constant (koff) was 0.00267 s⁻¹ and the kon was 18100 M⁻¹ s⁻¹.

As to B2, the Kd was 61.2 ± 0.6 nM, the koff is 0.00207 s⁻¹ and the kon is 33900 M⁻¹ s⁻¹.

For the molecule B3, the Kd was 74.3 ± 0.8 nM, the koff is 0.0014 s⁻¹ and the kon is 18800 M⁻¹ s⁻¹.

With B4, the Kd was 41.8 ± 0.7 nM, the koff is 0.00089 s⁻¹ and the kon is 21300 M⁻¹ s⁻¹.

For B5, the Kd is 80.8 ± 1.5 nM, the koff was 0.000882 s⁻¹ and the kon was 10900 M⁻¹ s⁻¹.

As to B6, the Kd is 22.7 ± 0.5 nM, the koff was 0.00242 s⁻¹ and the kon was 107000 M⁻¹ s⁻¹.

Take B7: the Kd is 51.1 ± 0.6 nM, the koff is 0.00205 s⁻¹ and the kon is 40100 M⁻¹ s⁻¹.

For B8, the Kd was 42.5 ± 0.7 nM, the koff is 0.00277 s⁻¹ and the kon was 65300 M⁻¹ s⁻¹.

Take B9: the Kd was 80.5 ± 1.5 nM, the dissociation rate constant (koff) is 0.0021 s⁻¹ and the kon was 26000 M⁻¹ s⁻¹.

In the next assay the target is tau 2N4R (recombinant; 15N-labelled for NMR) (Homo sapiens, UniProt P10636-8). The assay is described as follows: cell-based or functional assay.
Chain of tau 2N4R (recombinant; 15N-labelled for NMR) (P10636 other isoform, or with tags, fused parts or gaps): as above
Details: not given
As to B1, the “heparin-induced tau 2N4R aggregation, thioflavin fluorescence intensity ratio between tau with VHH and tau alone; VHH:tau 0.2:1 (46.2%) and 0.5:1 (25%)” value was found to be 46.2%.
